US11123408B2, “Compositions and methods for treating nonsteroidal anti-inflammatory drug (NSAID) associated coagulopathy, thrombocytopenia, glanzmann's thrombasthenia, and/or thrombosis” (YALE UNIVERSITY, priority 2011, dated 2021)
Entries after “also recorded” stand apart in the source; their conditions may differ.

Tested on: platelets in platelet rich plasma
Experiment: Lumi aggregometry (extracellular ATP, dense granule release) simultaneously with LTA
Assay type: cell-based, human
Procedure: Whole blood from healthy voluntary donors was collected in accordance with an IRB-approved protocol into blue top vacutainer tubes containing 3.2% sodium citrate. Blood was centrifuged at 1000 RPM for 10 minutes at room temperature to collect platelet rich plasma (PRP). PRP in the supernatant was then transferred to fresh tubes, and the remainder of the specimen was centrifuged at 4000 RPM for 10 minutes to obtain platelet poor plasma (PPP). PRP was adjusted to a final platelet count of 250×10^6 platelets/mL with autologous PPP for use in aggregation studies. Potential donors were excluded if there was a history of a bleeding disorder or current anticoagulant use and donors were instructed to avoid NSAIDs for at least 7 days prior to donation. Approval for the human subjects involved in this research was sought and granted by the Committee for the Protection of Human Subjects, Dartmouth-Hitchcock Medical Center, where these studies were conducted in accordance with the Declaration of Helsinki.
Light transmission (i.e., optical) and lumi aggregometry were performed on up to four samples from the same individual simultaneously with a Chrono-Log Model 700 Whole Blood/Optical Lumi Aggregometer (Chrono-Log Corporation, Havertown, Pa.) using procedures provided by the manufacturer that are briefly summarized here.
Platelet aggregation was determined by measuring the change in light transmittance of stirred PRP over time after addition of various agonists. Prior to each experiment the aggregometer was standardized to reflect 100% and 0% light transmittance with PPP and PRP, respectively, from the donor whose platelets were used in each specific experiment. 500 μL PRP was added to cuvettes containing a magnetic stir bar and allowed to pre-warm to 37° C. in the aggregometer wells for 3 minutes prior to initiating aggregation reactions which were then conducted at 37° C. Aggregation reactions were initiated by direct addition of agonists and/or enzymes to warmed, stirred PRP, and were monitored for an increase in light transmittance for 10 minutes. The increase in light transmittance is directly proportional to the amount of aggregation and is amplified and digitized into a computer (HP Compaq, Hewlett-Packard, Palo Alto, Calif.) with the AGGRO/LINK8 for Windows software (Chrono-Log Corporation, Havertown, Pa.) to generate aggregation curves. […] The platelet aggregometry experiments for all concentrations of MRS 2395 (including the 0 μM point) were conducted with the plasma adjusted to a final concentration of 10% DMSO to solubilize the inhibitor.
In a subgroup of experiments, lumi aggregometry was used to assay the levels of extracellular ATP simultaneously with LTA. Lumi aggregometry measures ATP in the extracellular space over time using a sensitive luminescent assay employing firefly luciferin-luciferase (CHRONO-LUME™ reagent, Chrono-Log Corporation, Havertown, Pa.). ATP binds to luciferin-luciferase and generates light that is then amplified by a high-gain photomultiplier tube in the lumi aggregometer and is measured simultaneously with the optical change in light transmittance caused by platelet aggregation. In experiments in which lumi aggregometry was performed, 450 μL of PRP was transferred to cuvettes containing magnetic stir bars and allowed to pre-warm to 37° C. in the aggregometer wells for 3 minutes. […] Reactions were initiated by the addition of agonists and/or enzymes to warmed PRP and CHRONOLUME′ reagent and were monitored for light generation. […]

B1: NPP4: soluble recombinant extracellular domain of human NPP4 (NCBI AAH18054.1, residues 1-407 of SEQ ID NO:1), expressed in insect cells (protein, listed as Homo sapiens)
chain: MKLLVILLFSGLITGFRSDSSSSLPPKLLLVSFDGFRADYLKNYEFPHLQNFIKEGVLVEHVKNVFITKTFPNHYSIVTGLYEESHGIVANSMYDAVTKKHFSDSNDKDPFWWNEAVPIWVTNQLQENRSSAAAMWPGTDVPIHDTISSYFMNYNSSVSFEERLNNITMWLNNSNPPVTFATLYWEEPDASGHKYGPEDKENMSRVLKKIDDLIGDLVQRLKMLGLWENLNVIITSDHGMTQCSQDRLINLDSCIDHSYYTLIDLSPVAAILPKINRTEVYNKLKNCSPHMNVYLKEDIPNRFYYQHNDRIQPIILVADEGWTIVLNESSQKLGDHGYDNSLPSMHPFLAAHGPAFHKGYKHSTINIVDIYPMMCHILGLKPHPNNGTFGHTKCLLVDQWCINLPEA
time to granule release (100 nM NPP4 with 40 μM Ap3A): ~1.5 min | platelet aggregation and dense granule (ATP) release, enzyme with Ap3A (qualitative) (100 nM enzyme with 40 μM Ap3A): ATP release and platelet aggregation were simultaneously seen; also recorded: strong platelet aggregation and dense granule release
